What was measured:
Conditions in all cases: chain copies: 2; label: tethered by stalled RNA polymerase
[1] = target: T1, MS2 coat protein, dlFG mutant (Escherichia phage MS2, UniProt P03612, del68-81insG); test: 4 mM Mg2+; no ligand; RNA-MaP array; 100 mM Tris-HCl pH 7.5, 80 mM KCl, 4 mM MgCl2, 0.1 mg/mL BSA, 1 mM DTT, 0.01 mg/mL yeast tRNA, 0.01% Tween-20; protein 1.5 nM to 3 uM; 37 C (Table S3)
[2] = target: T1, MS2 coat protein, dlFG mutant; test: 4 mM Mg2+; L-tryptophan 2.4 mM; RNA-MaP array; 100 mM Tris-HCl pH 7.5, 80 mM KCl, 4 mM MgCl2, 0.1 mg/mL BSA, 1 mM DTT, 0.01 mg/mL yeast tRNA, 0.01% Tween-20; protein 1.5 nM to 3 uM; 37 C (Table S3)
[3] = target: T1, MS2 coat protein, dlFG mutant; test: 4 mM Mg2+; theophylline 2 mM; RNA-MaP array; 100 mM Tris-HCl pH 7.5, 80 mM KCl, 4 mM MgCl2, 0.1 mg/mL BSA, 1 mM DTT, 0.01 mg/mL yeast tRNA, 0.01% Tween-20; protein 1.5 nM to 3 uM; 37 C (Table S3)
[4] = target: T1, MS2 coat protein, dlFG mutant; test: 4 mM Mg2+; miR-208a RNA 100 nM (AU…UUGU); RNA-MaP array; 100 mM Tris-HCl pH 7.5, 80 mM KCl, 4 mM MgCl2, 0.1 mg/mL BSA, 1 mM DTT, 0.01 mg/mL yeast tRNA, 0.01% Tween-20; protein 1.5 nM to 3 uM; 37 C (Table S3)
[5] = target: T1, MS2 coat protein, dlFG mutant; test: 4 mM Mg2+; FMN 200 uM; RNA-MaP array; 100 mM Tris-HCl pH 7.5, 80 mM KCl, 4 mM MgCl2, 0.1 mg/mL BSA, 1 mM DTT, 0.01 mg/mL yeast tRNA, 0.01% Tween-20; protein 1.5 nM to 3 uM; 37 C (Table S3)

B1: Eterna 6461493 (Inverted Same State NG 1) (ssRNA)
RNA: GUGCUUUGGGAGAAGGCCGUAUGCAAAGCAUACGGAGGAUAUUCAUACCGGAAACGGACAUGAGGAUCACCCAUGUGGCACAAA
[1]
  Kd: 1200 nM

B2: Eterna 6455789 (Same State NG 2) (ssRNA)
RNA: UUGGACGUCGUAGGAUAUGUAGGAUAUUCCUACAUGAGGAUCACCCAUGUUGACAUGGAAGAAGGACAGAAGUACGAUGUCCAU
[1]
  Kd: 127 nM

B3: Eterna 6402815 (Same State NG 2) (ssRNA)
RNA: ACCUCGUACACAGGAUAUGAUUACUUGCAGCCUGCGUUGACAUGAGGAUCACCCAUGUGGACUGAUCAGAAGGGUGAACGGAAG
[1]
  Kd: 571 nM

B4: Eterna 7763203 (Exclusion - FMN B) (ssRNA)
RNA: AAAUAACAGGCAGGAUAUGCUUAGUAAUAAGGCCAUAUAUACGUAUAGAGUGAUGUUUUGUACAAAGCAGAAGGGCUAAAUCCAU
[1]
  Kd: > 3000 nM

B5: Eterna 7613251 (Exclusion - Tryptophan A) (ssRNA)
RNA: CGGACAUGAGGAUCACCCAUGUCGUCGACGCGAGGACCGGUACGGCCGCCACUCGCAUGCCAAUGAGCGCAUGCGGCCUGGGUAU
[2]
  Kd: 22.8 nM

B6: Eterna 6045632 (Brourd's mod of Exclusion 4) (ssRNA)
RNA: CGGGCUGCUGUGAGGAUAUGCCUGUGGGUGCGUGGGUAGAAGGCACAUGAGGAUCACCCAUGUCCUGCAGCUCG
[1]
  Kd: 1130 nM

B7: Eterna 6122649 (Exclusion NG 2) (ssRNA)
RNA: UUAUCUUGUCAAGGAUAUGUUGUAUUGAUCUGAAAACAUGAGGAUCACCCAUGUAUACGGUGGGAACAGAAGGUGAAUGUAGAA
[1]
  Kd: 808 nM

B8: Eterna 13730 (Sensor v3, turn-off variant 1) (ssRNA)
RNA: CCGAGGAAGCGGUCCUAUGACAUGAGGAUCACCCAUGUACCUCGCUACGAGCUUUUUGCUCGUCUUAUAAUUCUCGG
[1]
  Kd: 23.6 nM

B9: Eterna 7740449 (Exclusion - Theophylline A) (ssRNA)
RNA: AUGUUUUAUAAACUCAUGGUUUCGACAGAUACCAGCUUCGAGAGGAGCCCUUGGCAGCUGCAUGAGUGAUGUUCAUGUACGAAGA
[1]
  Kd: > 3000 nM

B10: Eterna 6069320 (Exclusion 4) (ssRNA)
RNA: GGGUUGUGAGGAUAUUAGUUGUACGUCAAUAGACGUAUGGGUGAGAAGGCACAUGAGGAUCACCCAUGUUCCUG
[1]
  Kd: 107 nM

B11: Eterna 10695 (Exclusion 1) (ssRNA)
RNA: AAUUCACAUGAGGAUCACCCAUGUCAGGAUAUGGUGACGCGGGUUUCGGUGCGUGUUGCCAGAAGGGACGGCUG
[1]
  Kd: 133 nM

B12: Eterna 6455078 (Same State NG 2) (ssRNA)
RNA: UGGUACUAGGGAGGAUAUGGGAAGAUACAUGAGGAUCACCCAUGUUUAAGAAUGCCGAGAGGGAACUAGAAGGCCCUAGUACCU
[1]
  Kd: 255 nM

B13: Eterna 13277 (Sensor for hsa-mir-208a) (ssRNA)
RNA: AGUUGUGGGAAACUAUAGCAGACGCUCGUACAUGAGGAUCACCCAUGUCUUGUAGGAGCUGUUUGCUCGUUUUAUGG
[1]
  Kd: 63.8 nM

B14: Eterna 6458058 (Inverted Same State NG 2) (ssRNA)
RNA: AAUGGGCAGCAGAAGGCAUGUCUACGGACAUGAGGAUCACCCAUGUAGUAAAGCCGAAAGGCGCAUGAGGAUAUGCUGCCCUAA
[1]
  Kd: 121 nM

B15: Eterna 7750603 (Exclusion - Arginine A) (ssRNA)
RNA: GGCCGCAAGGCGAGCGCUCCCACUCCGGAAGGAGCGCCCGUAAGGGCAGGUAGGUCGCCGGAGUGAUGUUCCGGUGGAGGGCUCG
[1]
  Kd: > 3000 nM

B16: Eterna 7740311 (Same State - Theophylline A) (ssRNA)
RNA: AAAAUAAGCCAGUGAUGUUGGUAUACAGAUACCAGCGACGAAAGUCGCCCUUGGCAGCUGUGGACGUACAAAAUAAGUACGUCCU
[1]
  Kd: > 3000 nM

B17: Eterna 7618605 (Same State - Theophylline A) (ssRNA)
RNA: UGUAACAUGAGGAUCACCCAUGUGAGUGAUACCAGAUUAGUAUUAGUCCCUUGGCAGCACAUUGGGCGAGUGUAUAGUCUAUGCG
[3]
  Kd: 109 nM

## UUUCUUAUUCUUUAUUGUGGGGUUUU (ssRNA) [Eterna 4 (OligoAControl)]
[1]
  Kd: > 3000 nM

B18: Eterna 6446347 (Same State NG 2) (ssRNA)
RNA: GGGUACAUCGGAGGAUAUCAUGUAAAUACAUGAGGAUCACCCAUGUCGGUGGAGACAUCGGAGAUUGAGAAGGCCGAUGUACCG
[1]
  Kd: 271 nM

B19: Eterna 1184 (Exclusion - Theophylline B) (ssRNA)
RNA: AACACCCGCUAUGAUACCAGUGAAGUGAUGUUUUACUCCGGGCGUAAGACAAAGGUCAGCCACCCUUGGCAGCAUAUCCGCGUAU
[1]
  Kd: > 3000 nM

B20: Eterna 7644049 (Same State - Tryptophan A) (ssRNA)
RNA: ACAUGAGGAUCACCCAUGUCAUGAGGUUCACGAGGACCGGUACGGCCGCCACUCGACAUGAGGGUCACCCGUGAACGGAACACCC
[2]
  Kd: 20 nM

B21: Eterna 7744734 (Exclusion - Tryptophan A) (ssRNA)
RNA: CGUGAAUGUCGUCAGUCAUCGGUCCAUGCACGAGGACCGGUACGGCCGCCACUCGAGCGUGGCAGUGAUGUUGCCAGCGCACUAA
[1]
  Kd: > 3000 nM

B22: Eterna 11543 (Sensor v3, turn-off variant 1) (ssRNA)
RNA: AAAGAAGAGAGAAAAUAACACAUGAGGAUCACCCAUGUGAGAAGUUGAGGGUGAUACAGGCUUUAUGCUCGUCUUAU
[1]
  Kd: 203 nM

B23: Eterna 6461246 (Same State NG 1) (ssRNA)
RNA: GUUUUCGCAUGAGGAUAUGCUCGCAUUUUAAGAGCAGAAGGUAUGUCUUUAGACAUGAGGAUCACCCAUGUAUUUAUCAUUGAA
[1]
  Kd: 162 nM

B24: Eterna 6122145 (Exclusion NG 2) (ssRNA)
RNA: AAAUUUAACGAAGGAUAUGCUGACAUGAGGAUCACCCAUGUGUGCUUUGUGUUGCUGAAAUGGGAGCAGAAGGUCGUAUACAUA
[1]
  Kd: 118 nM

B25: Eterna 6146814 (Same State NG 1) (ssRNA)
RNA: GGUGUCGCAUGAGGAUAUGGUCAGCUUUGCUGACCAGAAGGCAUGUCAAUAGACAUGAGGAUCACCCAUGUAGUAAAGACACCA
[1]
  Kd: 504 nM

B26: Eterna 15090 (Exclusion 6) (ssRNA)
RNA: AAAUGGGCGUAGGAUAUGAGAUGGUCUAGCAGCUCAGAAGGACGCACAUGAGGAUCACCCAUGUGAUCGGACUA
[1]
  Kd: 28.7 nM

## UUUGCAGGGCAGUGAUGUUGCCCUGCUUU (ssRNA) [Eterna 8 (K4-8bp_control)]
[1]
  Kd: > 3000 nM

B27: Eterna 8603 (Same State 1) (ssRNA)
RNA: AUAAAACAUGAGGAUCACCCAUGUCAACAAAGUCGAGGAUAUGGGCAAAUAAAAUAAGAACCAGAAGGCGUAUAAU
[1]
  Kd: 530 nM

B28: Eterna 6075609 (Exclusion 3) (ssRNA)
RNA: CUGAGUUAAGGAUAUACAUGAGGAUCACCCAUGUAAAGUAGCUUGCGUACAGGCAGAUGUAGAAGGUAAUUCGG
[1]
  Kd: 43 nM

B29: Eterna 7689684 (Same State - Theophylline A) (ssRNA)
RNA: UGGAGUUGACGAAAAGUCAACUCCUGAGAUACCAGUGACGAAAGUCACCCUUGGCAGCUCACUGCCAGUGAUGUUGGAAAUAAAA
[1]
  Kd: > 3000 nM

B30: Eterna 5989868 (Exclusion 3) (ssRNA)
RNA: GUAUCACGAGGAUAUACAUGAGGAUCACCCAUGUAGAAGCCAUGUGGUGCUCAAGUAUGUAGAAGGCGUGCUCC
[1]
  Kd: 36.1 nM

B31: Eterna 1618 (Same State - Theophylline A) (ssRNA)
RNA: GAUUGAGUGAUGUUCAAUUAGUAUCUAGAUACCAGAAUGUCUACCUUCCCUUGGCAGCUACUGACGGUGAUCAUUUCGCGCGCAG
[1]
  Kd: > 3000 nM

B32: Eterna 7717543 (Exclusion - Theophylline B) (ssRNA)
RNA: CCAUUCAUUUACGAUACCAGUCUAAUAUAUUUAAUCAAAACCCUCGCCGAGUGAUGUUCGGACCCUUGGCAGCGUCUGCGACAGG
[1]
  Kd: > 3000 nM

B33: Eterna 12069 (Sensor v3, turn-off variant 1) (ssRNA)
RNA: UGUUGUUGUUUCCGUUCUUACAUGAGGAUCACCCAUGUUUCUUGUCGUGCUCGCGUUGCUCGUCAGACUACCUGUUG
[4]
  Kd: 111 nM

B34: Eterna 6430193 (Small Loop Exclusion NG 3) (ssRNA)
RNA: GUCGAAACCAUACUGGUCGACGGUCAGGAUAUACAUGAGGAUCACCCAUGUGCUAUUGAUACUAUGUAGAAGGGACCCACCGCA
[5]
  Kd: 24.4 nM

B35: Eterna 7741560 (Exclusion - FMN A) (ssRNA)
RNA: UCCUAGGCUCGAAAGAGCCUAGGAUUGACUCAGGAUAUCCGGAAACGGAGAAGGGAGUCACUAGUGAUGUUAGGGAUUCCCUAUU
[1]
  Kd: > 3000 nM
